Measurements taken from PMC3942423 (Nature chemical biology, 2009).
Values belong to the molecule of their own block, whether it stands above or below them.

Assays:
[1] = test system: GH92 enzymes; test: EDTA inactivation and metal reactivation; assay type: biochemical, Bacteroides thetaiotaomicron; details: all the GH92 enzymes analyzed
[2] = test system: Bt3990 E533A variant; test: kinetics of enzyme variant on DNP-Man; assay type: biochemical, Bacteroides thetaiotaomicron; details: E533A variant of Bt3990, activated aryl mannoside
[3] = biological target: Bt3990 E585A (Bacteroides thetaiotaomicron, UniProt Q8A0N1, E585A); test: kinetics of enzyme variant; assay type: biochemical; details: E585A of Bt3990, activated substrate
[4] = biological target: T1, Bt3990 (Bacteroides thetaiotaomicron, UniProt Q8A0N1); test: inhibition studies; assay type: biochemical
T1 sequence (Q8A0N1 20-755): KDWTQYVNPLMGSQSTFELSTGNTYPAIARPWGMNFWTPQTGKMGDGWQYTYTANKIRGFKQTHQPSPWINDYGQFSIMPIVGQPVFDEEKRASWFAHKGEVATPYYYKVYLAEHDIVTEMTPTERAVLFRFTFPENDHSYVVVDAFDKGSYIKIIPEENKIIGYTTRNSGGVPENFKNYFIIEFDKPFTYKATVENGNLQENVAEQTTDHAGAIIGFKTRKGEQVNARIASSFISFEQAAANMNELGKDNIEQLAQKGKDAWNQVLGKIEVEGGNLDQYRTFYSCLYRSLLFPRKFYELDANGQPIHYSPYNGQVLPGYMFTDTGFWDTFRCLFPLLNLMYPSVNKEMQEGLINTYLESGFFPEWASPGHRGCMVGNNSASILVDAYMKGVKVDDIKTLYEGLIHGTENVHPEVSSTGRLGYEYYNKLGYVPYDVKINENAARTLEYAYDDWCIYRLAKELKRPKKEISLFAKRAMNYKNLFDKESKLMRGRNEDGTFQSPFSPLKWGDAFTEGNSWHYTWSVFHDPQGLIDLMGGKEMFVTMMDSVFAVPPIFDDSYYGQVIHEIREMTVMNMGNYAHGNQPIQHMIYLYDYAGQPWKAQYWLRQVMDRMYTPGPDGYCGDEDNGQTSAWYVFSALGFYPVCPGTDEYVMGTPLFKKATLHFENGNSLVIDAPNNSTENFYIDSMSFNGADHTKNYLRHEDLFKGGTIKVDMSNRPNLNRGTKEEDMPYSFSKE

[5] = substrate: OC[C@H]1O[C@H](O[C@H]2[C@H](O)[C@H](O)[C@@H](O)O[C@@H]2CO)[C@@H](O)[C@@H](O)[C@@H]1O; test: mannobiose hydrolysis kinetics; assay type: biochemical, Bacteroides thetaiotaomicron; details: other: most active mannobiose substrate
[6] = substrate: O=[N+]([O-])c1ccc(O[C@H]2O[C@H](CO)[C@@H](O)[C@H](O)[C@@H]2O)cc1; test: 4NP-Man hydrolysis kinetics; assay type: biochemical, Bacteroides thetaiotaomicron; details: other: substrate 4NP-Man
[7] = substrate: OC[C@H]1O[C@H](O[C@@H]2[C@H](O)[C@@H](O)O[C@H](CO)[C@H]2O)[C@@H](O)[C@@H](O)[C@@H]1O; test: purified protein, by the assay type; details: other: most active mannobiose substrate; enzyme Bt1878; pH 7.0; 37.0 °C

effect on enzyme activity [1]: inactivated
Molecule: O=C(O)CN(CCN(CC(=O)O)CC(=O)O)CC(=O)O [EDTA]

Molecule: O=[N+]([O-])c1ccc(O[C@H]2O[C@H](CO)[C@@H](O)[C@H](O)[C@@H]2O)c([N+](=O)[O-])c1 [DNP-Man]
kcat/Km relative to the wild-type enzyme [2]: 370%
change of kcat/Km [3]: increased

Molecule: OC[C@@H]1[C@@H](O)[C@H](O)[C@H](O)c2nccn21 [mannoimidazole]
Ki [4]: 140 µM

recovery of activity after EDTA [1]: fully recovered
Molecule: [Ca+2] [calcium]

B1: Bt4073 (Bacteroides thetaiotaomicron VPI-5482) (protein)
chain: GVVTEDLIPTDYVNPFIGASTSVGAAGVYHGLGKTFPGATTPYGMVQVSPNTITGGDNSSGYSDEHKTIEGFAFTQMSGVGWFGDLGNFLVMPTTGELQKIAGKEDGSIKGYRSSYDKATETAKAGYYSVELTDYKIKVESSATPHCGILQFTFPSNEQSRIQIDLARRVGGTSTSQYVKVLDDYTIQGWMKCTPDGGGWGNGEGNSDYTVYYYAQFSKPLSNYGFWSADIPDEWVRKRDEVVSIPYLTRISQAPVIKDKKELEGKHLGFFTEFPTKEGEQVEMKVGISFVDMEGAANNFKQEIASKNFAQVKQEASDLWNKELSRIRISGGTDDEKTVFYTSLYHTMIDPRIYTDVDGRYIGGDKKVHEQDGTFTKRTIFSGWDVFRSQFPLQAMINPRLVSDALNSLITMADQSRREYYERWELLNSYSGCMIGNPALSVLADAYMKGIRTYDVEKAYQYAVNTSAKFGNDSLGYTPEPLSISYTLEYAYADWCVAQLAKALGKEEDAKRFYEKGQAYRNMFDAEKGWFRPRNADGSWKAWPENALTEEWYGCIESNAYQQGWFVPHDVPGMVELMGGKEEVIANLTNLFDHTPSDMLWNDYYNHANEPVHFVPFLFNQLDVPWYTQKWTRYICKNAYANKVEGIVGNEDVGQMSAWYILAASGIHPSCPGNTRMEITSPVFDKVEFNLDSKYHQGKVFTIIAHNNNTNNLYIQKALLNGKEYNKCYLDFAEIAAGGTLELFMGDKPNTEWGVLSNI
Km ([5]; enzyme Bt4073, pH 7.0): 270 ± 49 µM
kcat ([5]; enzyme Bt4073, pH 7.0): 183 ± 9.33 s⁻¹
kcat/Km ([5]; enzyme Bt4073, pH 7.0): 683000 M⁻¹ s⁻¹
Km ([6]; enzyme Bt4073, pH 7.0): 1800 ± 210 µM
kcat ([6]; enzyme Bt4073, pH 7.0): 0.0045 ± 0.000233 s⁻¹
kcat/Km ([6]; enzyme Bt4073, pH 7.0): 2.33 M⁻¹ s⁻¹

B2: Bt4093 (Bacteroides thetaiotaomicron VPI-5482) (protein)
chain: GDYVHQVNTLIGTKGTGLTSGYLYPGATYPYGMVQFTPSYFSKRSGFVINQLSGGGCEHMGNFPTFPVKGKLKMSPDNILNYRINVSEEKGHAGYYEAMVQEDIKAKLTVTERTGMASYEYPADQQYGTIIIGGGISATPIEQAAIVITAPNKCEGYAEGGNFCGLRTPYKVYFVAEFDTDAFETGTWKREELMPNTTFAEGEYSGVYFTFDVNKKKNIQYKIGVSYVSVENARENLKAENAEWDFQKIQNQAEAKWNHYLGMIEVEGTNPDRTTQFYTHLYRSFIHPNVCSDVNGEYMGADFRVHKSRSKHYTSFSNWDTYRTQIQLLSMLDPEVASDIVISHQLFAEQSGGSFPRWVMANIETGVMQGDPTPILIANAYAFGARNYDPKPIFKIMRKGAEEPGSKSQDVETRPGLKQYLDKGYYNASIQLEYTSADFAIGQFALHAVGDEFASWRYFHFARSWKNLYNSDTGWLQSRNPDGSWKSLGEDFRESTYKNYFWMVPYDIAGLVEIIGGKEKAEKRLDEFFTRLDAGYNDAWFASGNEPSFHIPWIYNWIGRPYKTQEIINRVLNEQYSSKIDGLPGNDDLGTMGAWYVFACIGLYPEIPGVGGFTVNTPIFSSVKVHLKKGDIVIKGGSEKDIYIKSMKLNGKSYESTWIDWDQLNSGATIEYRTSGKPDMKWGAKVVPPSFP
Km ([5]; enzyme Bt4093, pH 7.0): 35000 ± 2400 µM
kcat ([5]; enzyme Bt4093, pH 7.0): 1.33 ± 0.065 s⁻¹
kcat/Km ([5]; enzyme Bt4093, pH 7.0): 38.3 M⁻¹ s⁻¹
Km ([6]; enzyme Bt4093, pH 7.0): 1300 ± 190 µM
kcat ([6]; enzyme Bt4093, pH 7.0): 0.0112 ± 0.000817 s⁻¹
kcat/Km ([6]; enzyme Bt4093, pH 7.0): 9.08 M⁻¹ s⁻¹

B3: Bt3965 (Bacteroides thetaiotaomicron VPI-5482) (protein)
chain: MAQTEKLTDYVNPFVGTDGYGNVYPGAQIPFGGIQISPDTDSRFYDAASGYKYNHLTLMGFSLTHLSGTGIPDLGDFLFIPGTGEMKLEPGTHEDPDQGYRSRYSHDKEWASPNYYAVELADYGVKAEMTSGVRSGMFRFTYPESDNAFIMIDMNHTLWQSCEWSNLRMINDSTITGYKLVKGWGPERHVYFTATFSKKLTGLRFVQDKKPVIYNTSRFRSSYEAWGKNLMACISFDTKAGEEVTVKTAISAVSTDGARNNMKELDGLTFNELRAKGEALWEKELGKYTLTADRKTKETFYTSAYHAALHPFIFQDSDGQFRGLDKNIEKAEGFTNYTVFSLWDTYRALHPWFNLVQQEVNADIANSMLAHYDKSVEKMLPIWSFYGNETWCMIGYHAVSVLADMIVKEVKGFDYERAYEAMKTTAMNSNYDCLPEYREMGYVPFDKEAESVSKTLEYAYDDYCIAQAAKKLGKEDDYHYFLNRALSYQTLIDPETKYMRGRDSKGDWRTPFTPVAYQGPGSVHGWGDITEGFTMQYTWYVPQDVQGYINEAGKELFRKRLDELFTVELPDDIPGAHDIQGRIGAYWHGNEPCHHVAYLYNYLKEPWKCQKWIRTIVDRFYGNTPDALSGNDDCGQMSAWYMFNCIGFYPVAPSSNIYNIGSPCAEAITVRMSNGKNIEMTADNWSPKNLYVKELYVNGKKYDKSYLTYDDIRDGVKLRFVMSGKPNYKRAVSDEAVPPSISLPEKTMKYKSSIGF
kcat ([5]; enzyme Bt3965, pH 7.0): 1.48 ± 0.113 s⁻¹
kcat/Km ([5]; enzyme Bt3965, pH 7.0): 183 M⁻¹ s⁻¹
kcat ([6]; enzyme Bt3965, pH 7.0): 0.233 ± 0.00667 s⁻¹
kcat/Km ([6]; enzyme Bt3965, pH 7.0): 233 M⁻¹ s⁻¹

B4: Bt3530 (Bacteroides thetaiotaomicron VPI-5482) (protein)
chain: MTPSVAQNTKYVNLFIGTSGDNGQVAPGAAAPFGMVCVCPDNDPRSHAGYDYAVTKVSGISVNRLSGVGCSGGGGNLRIRPVAPSQELHIKKSREKATPGYYSTAFTNGIKTELTATNAMAVERYKFPRSLSAALWIDFASTFEDVATCHYKRISETCIEGYVQAKNVCGHGCYKLYFSLNTSQPFQLEEQKETTACLTFGKKVRSVEVRIGLSALSSELASWECARWEKMDFEDVKSRTADQWEKQLSAIDVKGGKKDDRVIFYTSLYRTYLSPADVSSPDGAYLGTDGKVYISEDFRYYSNWSLWDTFRTKFPLLVLTEPAKMRDMATSLIHLYATGKKDWSTGFESTPTVRTEHAVILLLDAYRKGITNLDFRKGYAGMKQEMERLPMRSPDQKMESAYDLWAMAKIAEIIGEKADSEQYRQRSVSLFEETWKKEFMNVTPAFEVMKNNGLYQGTRWQYRWAAPQYIDKMIEWVGQDSLRLQLTYFFDHHLYNQGNEPDIHVPYLFNRLGAPEKTQQIVRSLMTEPMIHKYGGNSEFKTPYLGKAFKNAPEGYSPEMDEDDGTMSAWYVFGAMGFYPLLVGDEYYDLTSPLFDRVLLRLTNGNVLTIQTEGRKKKDAPIKSIHFNGKKIADYRISHNELIKGGELIYNYK
kcat ([5]; enzyme Bt3530, pH 7.0): 0.001 ± 8.33e-05 s⁻¹
kcat/Km ([5]; enzyme Bt3530, pH 7.0): 1.58 M⁻¹ s⁻¹

B5: Bt1878 (Bacteroides thetaiotaomicron VPI-5482) (protein)
chain: ETKDYTQYVNTFIGAADNGHTFPGACYPFGMIQTSPVTGAVGWRYCSEYTYQDSLIWGFTQTHLNGTGCMDLGDILVMPVTGTRARAWDAYRSHFPKDKEAATPGYYTVELSDPQVKAELTASIHAALHRYTYHKADSASLLIDLQHGPAWREEQYHSQVNSCEVNWEDAQTLAGHVNNTVWVDQDYFFVMKFNRPVIDSLYLPMGETEKGKRIIATFDLKPGDELMMKVALSTTSVEGAKKNLQAEIPDWNFDGVKLAAHDEWNSYLSRMDVEGTDDEKTNFYTCFYHALIQPNQISDVDGMYRNAADSIVKAGTGTFYSTFSLWDTYRAAHPFYTLMVPERVDDFVNSLIEQGEVQGFLPIWALWGKENFCMIGNHGVSVIAEAYRKGFRGFDAERAFNMVKKTQTVSHPLKSDWEVYTKYGYFPTDLTKAESVSSTLESVYDDYAAADMARRMGKEEDAAYFAKRADYYKNLFDSQTNFMRPRKADGTWKSPFNPSDVGHAESTGGDYTEGNAWQYTWHVQHDVPGLIALFGGEEPFLNKLDSLFTVKLETTQADVTGLIGQYAHGNEPSHHVTYLYALAGRPERTQELIREIFDTQYKNKPDGLCGNDDCGQMSAWYMFSAMGFYPVDPVSGDYVFGAPQLPKIVLHLADGKTFTVIAENLSKEHKYVDSITLNGEPYTKNTISHEDILKGGTLVYKMK
Km ([6]; enzyme Bt1878, pH 7.0): 900 ± 130 µM
kcat ([6]; enzyme Bt1878, pH 7.0): 0.00133 ± 8.33e-05 s⁻¹
kcat/Km ([6]; enzyme Bt1878, pH 7.0): 1.48 M⁻¹ s⁻¹
Km [7]: 2000 ± 380 µM
kcat [7]: 0.283 s⁻¹
kcat/Km [7]: 140 M⁻¹ s⁻¹
